Reference: patent US20110014669A1, “Production of 1,4 Butanediol in a Microorganism” (Microbia, Inc., priority 2009, published 2011)

B1: YeaUEc: Enzyme candidate for BDO biosynthetic pathway step A5, SEQ ID NO. 59 (protein, listed as Escherichia coli)
chain: MMKTMRIAAIPGDGIGKEVLPEGIRVLQAAAERWGFALSFEQMEWASCEYYSHHGKMMPDDWHEQLSRFDAIYFGAVGWPDTVPDHISLWGSLLKFRREFDQYVNLRPVRLFPGVPCPLAGKQPGDIDFYVVRENTEGEYSSLGGRVNEGTEHEVVIQESVFTRRGVDRILRYAFELAQSRPRKTLTSATKSNGLAISMPYWDERVEAMAENYPEIRWDKQHIDILCARFVMQPERFDVVVASNLFGDILSDLGPACTGTIGIAPSANLNPERTFPSLFEPVHGSAPDIYGKNIANPIATIWAGAMMLDFLGNGDERFQQAHNGILAAIEEVIAHGPKTPDMKGNATTPQVADAICKIILR
B2: LdcCEc: Enzyme candidate for BDO biosynthetic pathway step A5, SEQ ID NO. 62 (protein, listed as Escherichia coli)
chain: MNIIAIMGPHGVFYKDEPIKELESALVAQGFQIIWPQNSVDLLKFIEHNPRICGVIFDWDEYSLDLCSDINQLNEYLPLYAFINTHSTMDVSVQDMRMALWFFEYALGQAEDIAIRMRQYTDEYLDNITPPFTKALFTYVKERKYTFCTPGHMGGTAYQKSPVGCLFYDFFGGNTLKADVSISVTELGSLLDHTGPHLEAEEYIARTFGAEQSYIVTNGTSTSNKIVGMYAAPSGSTLLIDRNCHKSLAHLLMMNDVVPVWLKPTRNALGILGGIPRREFTRDSIEEKVAATTQAQWPVHAVITNSTYDGLLYNTDWIKQTLDVPSIHFDSAWVPYTHFHPIYQGKSGMSGERVAGKVIFETQSTHKMLAALSQASLIHIKGEYDEEAFNEAFMMHTTTSPSYPIVASVETAAAMLRGNPGKRLINRSVERALHFRKEVQRLREESDGWFFDIWQPPQVDEAECWPVAPGEQWHGFNDADADHMFLDPVKVTILTPGMDEQGNMSEEGIPAALVAKFLDERGIVVEKTGPYNLLFLFSIGIDKTKAMGLLRGLTEFKRSYDLNLRIKNMLPDLYAEDPDFYRNMRIQDLAQGIHKLIRKHDLPGLMLRAFDTLPEMIMTPHQAWQRQIKGEVETIALEQLVGRVSANMILPYPPGVPLLMPGEMLTKESRTVLDFLLMLCSVGQHYPGFETDIHGAKQDEDGVYRVRVLKMAG
B3: PanDEc: Enzyme candidate for BDO biosynthetic pathway step A5, SEQ ID NO. 61 (protein, listed as Escherichia coli)
chain: MIRTMLQGKLHRVKVTHADLHYEGSCAIDQDFLDAAGILENEAIDIWNVTNGKRFSTYAIAAERGSRIISVNGAAAHCASVGDIVIIASFVTMPDEEARTWRPNVAYFEGDNEMKRTAKAIPVQVA
B4: PoxBEc: Enzyme candidate for BDO biosynthetic pathway step A5, SEQ ID NO. 60 (protein, listed as Escherichia coli)
chain: MKQTVAAYIAKTLESAGVKRIWGVTGDSLNGLSDSLNRMGTIEWMSTRHEEVAAFAAGAEAQLSGELAVCAGSCGPGNLHLINGLFDCHRNHVPVLAIAAHIPSSEIGSGYFQETHPQELFRECSHYCELVSSPEQIPQVLAIAMRKAVLNRGVSVVVLPGDVALKPAPEGATMHWYHAPQPVVTPEEEELRKLAQLLRYSSNIALMCGSGCAGAHKELVEFAGKIKAPIVHALRGKEHVEYDNPYDVGMTGLIGFSSGFHTMMNADTLVLLGTQFPYRAFYPTDAKIIQIDINPASIGAHSKVDMALVGDIKSTLRALLPLVEEKADRKFLDKALEDYRDARKGLDDLAKPSEKAIHPQYLAQQISHFAADDAIFTCDVGTPTVWAARYLKMNGKRRLLGSFNHGSMANAMPQALGAQATEPERQVVAMCGDGGFSMLMGDFLSVVQMKLPVKIVVFNNSVLGFVAMEMKAGGYLTDGTELHDTNFARIAEACGITGIRVEKASEVDEALQRAFSIDGPVLVDVVVAKEELAIPPQIKLEQAKGFSLYMLRAIISGRGDEVIELAKTNWLR

Test system: 5-hydroxy-2-oxopentanoate
Test: Enzyme assay, decarboxylase (step A5), aldehyde dehydrogenase linked reaction
Format: biochemical
Set-up: key: +: measureable activity detected in the assay; −: no measurable activity detected in the assay
Details: BDO biosynthetic pathway step A5
Method: Enzyme expression and crude lysate preparation. The enzymatic activity of each candidate enzyme is evaluated, first in E. coli and subsequently in C. glutamicum. It will be apparent to one of skill in the art that the expression and lysate preparations may need to be modified depending on the host cell and recombinant gene of interest.
E. coli: E. coli strains transformed with expression clones, for example, pUC18 or MB4124 based clones having a medium strong constitutive promoter regulating the recombinant gene of interest, are grown aerobically in LB medium (Difco) containing the appropriate antibiotic(s). At an OD600 of 0.5, IPTG is added to a final concentration of 0.25 mM. The cultures are grown to a final OD600 of 1.5 at which time the cells are collected and harvested by centrifugation. Cell pellets are resuspended in BugBuster (Novagen) reagent containing benzonase and lysozyme. Alternatively, E. coli strains transformed with expression clones, are grown overnight aerobically at 37° C. in BHI containing the appropriate antibiotic(s). 300 μL of fresh overnight culture is used to inoculate 2.7 mL BHI containing 0.25 mM IPTG and the appropriate antibiotic. The cultures are grown aerobically for 4-5 hours at 37° C. at which time the cells are collected and harvested by centrifugation. Cell pellets are frozen at −80° C. for at least 15 minutes, then thawed and resuspended in BugBuster (Novagen) reagent. Lysis and lysate collection are performed according to the manufacturer's instructions and, for example, may involve use of a sonicator and/or French press. Cleared lysates are stored on ice until enzyme assays are performed.
C. glutamicum: C. glutamicum strains transformed with MB4124 expression clones containing the recombinant gene of interest are grown aerobically in BHI broth supplemented with the proper antibiotic(s). At an OD600 of 0.5, IPTG is added to a final concentration of 0.25 mM. The cultures are grown to a final OD600 of 1.5 at which time the cells are collected and harvested by centrifugation. The pellet is washed once in one volume of water and resuspended in lysis buffer (1.0 ml 1.0 M HEPES buffer, pH 7.5, 0.5 ml 1M KOH, 10 μl 0.5M EDTA, protease inhibitor cocktail, water to 5 ml; the final pH will vary depending on the individual enzyme being tested) and one volume of 0.1 mm acid washed glass beads. The mixture is repeatedly alternately vortexed and held on ice for 15 seconds, eight times. After centrifugation for 5 min at 4,000 rpm, the supernatant lysate is removed and respun for 20 min at 10,000 rpm. Alternatively, C. glutamicum strains transformed with MB4124 expression clones containing the recombinant gene of interest are grown aerobically overnight in BHI broth supplemented with the proper antibiotic(s). Five mL of fresh overnight culture is used to inoculate 200 mL BHI containing 0.25 mM IPTG and the appropriate antibiotic. The cultures are grown aerobically at 30° C. for 5-7 hours at which time the cells are collected and harvested by centrifugation at 4° C. The pellet is resuspended in 15 mL ice cold 39 mM KH2PO4, 61 mM K2HPO4, 0.5 M KCl and lysed using a BioSpec BeadBeater and following the manufacturer's instructions. The lysate is centrifuged at 16,000 RPM at 4° C. for 30 minutes and the supernatant retained on ice as the extract.
Protein Assays. Protein concentrations in lysates are determined according to the methods of Bradford et al. (Anal. Biochem. 72:248-254 [1976]) or by the method of Smith et al. (Anal. Biochem. 150(1):76-85 [1985]) and lysates are assayed according to the methods below.
Enzyme Assays. Enzyme assays are performed on the cell lysates prepared above. The activity for each recombinant enzyme is compared to a lysate from a vector only control culture which is generated in a fashion identical to the recombinant enzyme lysate. […]

| Molecule | Enzyme Assay |
| --- | --- |
| B1 | − |
| B2 | − |
| B3 | − |
| B4 | − |
